The target of assay [1] is SpySwitch. The experiment in a line: ITC.
Assay [2] addresses SpySwitch. In words: ITC; pH 7.5. For orientation: In ITC the heat of successive injections is recorded.

By stoichiometry N is commonly meant a count of units in the complex or per binding partner. Usually Kd stands for the free concentration of one partner at which half of the binding sites on the other are occupied at equilibrium, for simple one-to-one binding. A high value points to a looser complex. The substance SpyTag003-MBP displayed a stoichiometry N in assay [1] of 1. In addition, the equilibrium dissociation constant (Kd) in assay [2] stood at 1500 nM.
With SpyTag-MBP, in assay [1], the stoichiometry N came out at 1. In assay [2], this substance came in with a Kd of 1100 nM.

Values taken from paper PMC9240080.
